Among the targets are DRB1*0101; DRB1*0301; DRB1*1302; DRB1*1501; DRB4*0101; DRB1*0901; DRB1*0701; DRB1*0401; DRB1*0404; DRB1*0405; DRB5*0101; DRB1*0802; DRB1*1101.
What all share (experiment): binding to purified HLA
Conditions in all cases: chains peptide; modification not given

Usually IC50 stands for the concentration that gives 50% inhibition.

B1: SEQ ID NO: 3 (peptide)
chain: AKFVAAWTLKAAA
B1: the 50% inhibitory concentration (IC50) with DRB1*0101 stood at 4 nM; in the assay with DRB1*0301, 289 nM; with DRB1*1302, 367 nM; with DRB1*1501, 37 nM; in the assay with DRB4*0101, 447 nM; with DRB1*0901 it was 50 nM. Also, the half-inhibitory concentration (IC50) worked out at 97 nM with DRB1*0701; 1.4 nM with DRB1*0401; 0.79 nM with DRB1*0404; 32 nM in the assay with DRB1*0405; 19 nM with DRB5*0101; 9.5 nM with DRB1*0802. This molecule also registered an IC50 with DRB1*1101 of 9.1 nM.

The values above are taken from US20160114035A1.
